Test results from patent publication US12723100.

How the values were obtained:
[1] = target: full-length human Nectin-4 on cells (human) (UniProt Q96NY8); assay: cell-based or functional assay
[2] = target: human recombinant Nectin-4 protein (extracellular domain) (human) (UniProt Q96NY8); assay: ELISA, recombinant human Nectin-4 coated on plate
[3] = target: full-length human Nectin-4 on cells (human) (UniProt Q96NY8); assay: flow cytometry, SKBR3 cells (endogenous Nectin-4)
[4] = target: full-length human Nectin-4 on cells (human) (UniProt Q96NY8); assay: flow cytometry competition on CHO-Nectin-4 cells; competitor biotinylated human Nectin-1-His
[5] = target: full-length human Nectin-4 on cells (human) (UniProt Q96NY8); assay: flow cytometry, CHO-Nectin-4 cells

B1: Positive Control 1 (PC1), in-house Nectin-4-specific antibody based on Enfortumab (AGS-22 M6) (antibody, INN chains, looked up, V domains shown)
VH: EVQLVESGGGLVQPGGSLRLSCAASGFTFSSYNMNWVRQAPGKGLEWVSYISSSSSTIYYADSVKGRFTISRDNAKNSLSLQMNSLRDEDTAVYYCARAYYYGMDVWGQGTTVTVSS
VL: DIQMTQSPSSVSASVGDRVTITCRASQGISGWLAWYQQKPGKAPKFLIYAASTLQSGVPSRFSGSGSGTDFTLTISSLQPEDFATYYCQQANSFPPTFGGGTKVEIKR
B1 was tested, and the Endocytosis EC50 (cell killing with MMAF-conjugated Fab anti-hFc), Nectin-4-CHO cells [1] was 0.33 nM, the Endocytosis EC50 (cell killing with MMAF-conjugated Fab anti-hFc), SKBR3 cells [1] was 0.39 nM and the EC50 [2] was 0.34 nM. It also gave an EC50 [3] of 0.07 nM, an EC50 [4] of 0.16 nM and an EC50 [5] of 0.04 nM.
